Legend:
[1] = molecular target: full-length human PARP1 (activated by DNA) (human), P09874; assay: ITC; HPF1 in the syringe; full-length PARP1 0.02 mM pre-incubated with 0.06 mM DNA hairpin at 4 °C for at least 60 min, in the cell; 25 °C; 20 mM Tris-pH 8.0, 150 mM NaCl, 1 mM TCEP, 1 mM MgCl2; details: remark: other sources report otherwise
[2] = molecular target: full-length human PARP1 (activated by DNA) (human), P09874; assay: ITC; in the presence of DNA; details: natural protein; chains chain; remark: other sources report otherwise

Chain of full-length human PARP1 (activated by DNA) (human), P09874 (P09874 whole entry): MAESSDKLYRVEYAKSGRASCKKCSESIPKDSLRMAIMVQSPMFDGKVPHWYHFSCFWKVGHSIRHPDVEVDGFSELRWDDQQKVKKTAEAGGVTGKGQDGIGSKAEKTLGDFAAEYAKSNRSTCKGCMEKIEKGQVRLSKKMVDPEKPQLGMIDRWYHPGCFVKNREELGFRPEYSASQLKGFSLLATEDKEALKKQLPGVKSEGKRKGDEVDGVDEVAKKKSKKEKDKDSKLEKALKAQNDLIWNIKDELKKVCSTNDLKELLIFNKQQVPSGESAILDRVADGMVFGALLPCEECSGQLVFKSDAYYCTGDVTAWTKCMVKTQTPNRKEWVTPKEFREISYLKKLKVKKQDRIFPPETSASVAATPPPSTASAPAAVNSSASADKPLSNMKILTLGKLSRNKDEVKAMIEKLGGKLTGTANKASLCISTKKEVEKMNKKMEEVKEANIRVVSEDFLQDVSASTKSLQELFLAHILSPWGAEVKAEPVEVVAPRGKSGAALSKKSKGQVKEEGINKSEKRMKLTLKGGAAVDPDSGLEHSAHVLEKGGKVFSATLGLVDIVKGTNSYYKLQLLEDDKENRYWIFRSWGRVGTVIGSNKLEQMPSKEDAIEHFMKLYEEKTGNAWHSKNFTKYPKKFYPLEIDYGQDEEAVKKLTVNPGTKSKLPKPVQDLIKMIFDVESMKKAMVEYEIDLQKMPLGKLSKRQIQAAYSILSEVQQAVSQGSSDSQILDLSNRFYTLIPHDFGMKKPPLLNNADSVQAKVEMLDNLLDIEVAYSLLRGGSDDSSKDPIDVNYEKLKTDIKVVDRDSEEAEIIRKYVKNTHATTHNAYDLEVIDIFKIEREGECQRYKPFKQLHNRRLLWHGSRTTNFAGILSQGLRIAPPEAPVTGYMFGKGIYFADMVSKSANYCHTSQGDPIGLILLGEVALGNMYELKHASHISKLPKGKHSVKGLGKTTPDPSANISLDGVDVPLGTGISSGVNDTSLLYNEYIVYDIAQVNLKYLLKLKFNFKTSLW

Kd [1]: 2800 nM
Ka [2]: 330000 M⁻¹
B1: human HPF1 (histone PARylation factor 1), wild-type, Q9NWY4 1-346 (natural protein)
chain: MVGGGGKRRPGGEGPQCEKTTDVKKSKFCEADVSSDLRKEVENHYKLSLPEDFYHFWKFCEELDPEKPSDSLSASLGLQLVGPYDILAGKHKTKKKSTGLNFNLHWRFYYDPPEFQTIIIGDNKTQYHMGYFRDSPDEFPVYVGINEAKKNCIIVPNGDNVFAAVKLFLTKKLREITDKKKINLLKNIDEKLTEAARELGYSLEQRTVKMKQRDKKVVTKTFHGAGLVVPVDKNDVGYRELPETDADLKRICKTIVEAASDEERLKAFAPIQEMMTFVQFANDECDYGMGLELGMDLFCYGSHYFHKVAGQLLPLAYNLLKRNLFAEIIEEHLANRSQENIDQLAA
